Our source for the binding result and Kd values is patent publication US20090081219A1 (Genmab, published 2009).

One may read the Kd as the concentration at which binding is half-saturated.

The target of assay [1] is T1, recombinant human CD25 (rhCD25), NS/0-expressed recombinant protein from R&D Systems (cat#223-2A/CF) (human, UniProt P01589 22-213, limits assumed).
T1 construct: Coated on ELISA plates, and amine-coupled to a CM-5 chip for SPR; also called hrCD25; soluble CD25
T1 sequence (looked up): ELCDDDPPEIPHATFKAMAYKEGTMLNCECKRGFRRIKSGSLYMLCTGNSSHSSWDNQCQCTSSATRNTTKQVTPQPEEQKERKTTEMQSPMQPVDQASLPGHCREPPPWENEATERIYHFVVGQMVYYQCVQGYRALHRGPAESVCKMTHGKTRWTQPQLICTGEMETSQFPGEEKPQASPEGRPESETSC
Nature of the assay: competition ELISA on coated rhCD25 (100 ng/ml); antibody supernatant added 10 min before rIL-2-biotin (50 ng/ml); streptavidin-poly-HRP/ABTS, OD405; blocked ligand: biotinylated IL-2. How it is done: After washing (3×) the plates with PBST, 100 μl of sample antibody (concentration range: 10, 33, and 100 ng/ml) was added. […] After washing the plates 3× (in PBST), plates were incubated with streptavidin-poly-HRP (dilute 1:10,000 from stock) in PBS, and 100 μl was added to each well (1 hour, RT). After washing the plates (3× in PBST), 10 mg ABTS (Roche) per 10 ml ABTS buffer (Roche) was made and 100 μl added to each well.
On the technique in general: An ELISA detects its analyte on a solid surface through an enzyme-linked reagent.

Assay [2] has as its target T1, recombinant human CD25 (rhCD25), …. Nature of the assay: SPR, BIAcore 3000, 25 C; rhCD25 amine-coupled to CM-5 chip at low density, antibody as analyte, 1:1 Langmuir model. For orientation: SPR reads the build-up and loss of mass on a sensor chip optically.
Description: Affinity analyses were assessed by monitoring changes in surface plasmon resonance using a BIAcore 3000 instrument. A BIAcore 3000 and BIAcore 3000 software control (BIAcore, Uppsala, Sweden, lot#BR-1100-43) was used. […] After blocking the residual binding sites of the activated sensor chip using ethanol-amine-HCl, a kinetic analysis was performed at 25° C. […] The results were visualized using a BIAcore 3000 (Bio-tek Instruments) and analyzed using the BIAevaluation Software 3.1 (BIAcore, Uppsala, Sweden) and Languir binding 1:1 was used as pre-fixed model.

B1: human monoclonal antibody AB1 (antibody, human IgG1, V domains shown)
VH: QVQLVQSGAEVKKPGSSVKVSCKASGGTFSRYPINWVRQAPGQGLEWMGRIIPILGIADYAQRFQGRVTITADKSTNTAYMELSSLRSEDTAVYYCARRDWGDYWGQGTLVTVSS
VL: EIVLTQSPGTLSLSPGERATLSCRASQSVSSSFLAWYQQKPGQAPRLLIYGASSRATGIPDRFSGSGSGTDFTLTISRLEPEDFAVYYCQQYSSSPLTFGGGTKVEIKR
notes: Human IgG1,kappa from a hybridoma (HuMAb mouse)
Regarding B1, the binding result in assay [1] was “binds”.

B2: human monoclonal antibody AB12 (antibody, V domains shown)
VH: QVQLVQSGAEVKKPGSSVKVSCKASGGTFSRYIINWVRQAPGQGLEWMGRIIPILGVENYAQKFQGRVTITADKSTSTAYMELSSLRSEDTAVYYCARKDWFDYWGQGTLVTVSS
VL: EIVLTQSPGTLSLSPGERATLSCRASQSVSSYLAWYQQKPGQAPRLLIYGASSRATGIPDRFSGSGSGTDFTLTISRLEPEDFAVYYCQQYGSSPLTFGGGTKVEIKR
notes: Human IgG1,kappa from a hybridoma (HuMAb mouse); also called AB12-FITC; FITC-labeled AB12
Regarding B2, the dissociation constant Kd in assay [2] was 0.0474 nM.

B3: human monoclonal antibody AB7 (antibody, V domains shown)
VH: QVQLVQSGAEVKKPGSSVKVSCKASGGTFSRYAINWVRQAPGQGLEWMGRIIPILDIADYAQKFQDRVTITADKSTNTAYMELSSLRSEDTAVYYCARKDWFDPWGQGTLVTVSS
VL: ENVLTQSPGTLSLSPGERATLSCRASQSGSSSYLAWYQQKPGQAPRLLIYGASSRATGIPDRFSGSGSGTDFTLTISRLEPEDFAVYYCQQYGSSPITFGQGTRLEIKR
notes: as for B1
In the case of B3, the binding result in assay [1] is “binds”.

B4: human monoclonal antibody AB11 (antibody, human IgG1, V domains shown)
VH: QVQLVQSGAEVKKPGSSVKVSCKASGGTFSRYPINWVRQAPGQGLEWMGRIIPILGIADYAQRFQGRVTITADKFTNTAYMELSSLRSEDTAVYYCARRDWGDYWGQGTLVTVSS
VL: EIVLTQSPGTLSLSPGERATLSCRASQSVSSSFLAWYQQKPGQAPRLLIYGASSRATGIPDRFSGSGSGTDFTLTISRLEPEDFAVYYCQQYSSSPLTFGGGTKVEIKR
notes: as for B1
Turning to B4, the binding result in assay [1] was “binds”.
